Results from patent publication US20150191520A1 (MEDIZINISCHE UNIVERSIT T WIEN, published 2015).
Substitutions are numbered along the chain they refer to.

Tests used:
[1] = biological target: T1, isolated human C3b (ih-C3b) (human, UniProt P01024 749-1663; P01024 23-667, limits assumed, biotin on amino groups (Biotin-X-NHS) in flow cytometry; unlabelled in ELISA); assay: flow cytometry, CSP on transduced Bw cells (FIG. 2a)
T1 construct: Multi-chain fragment
Procedure: (§1) FIG. 2. Interaction of ILT4 and ILT5v2 with C4d, C4b, C3d, C3b and iC3b. a Flow cytometric analysis of Bw cells transduced to express ILT2, ILT4 and ILT5-antigenic variants 1 and 2 (ILT5v1 and ILT5v2). Expression of ILT-receptors was verified with specific monoclonal antibodies (left panels, grey histograms; open histograms represent reactivity of ILT MAbs with mock treated Bw cells). Interaction of Bw cells expressing ILT-molecules and mock-treated Bw cells with the indicated CSPs (20 μg/mL each) and with MHC-class I tetramers (further panels, grey histograms). b Interaction of plate-bound CSPs with recombinant human ILT4-Fc fusion protein (rh-ILT4-Fc) or control Fc-fusion protein (rh-ILT3-Fc) was analyzed in an ELISA. c Bw cells transduced to express PIR-B, the murine ortholog of ILT4, were probed with a PIR-B-specific monoclonal antibody or with human CSPs and human MHC-class I tetramers.
(§2) Flow cytometric analyses were performed via a FACSCalibur flow cytometrer (BD Biosciences, Franklin Lakes, N.J.) using 60,000 cells per sample resuspended in FACS-buffer. In experiments employing monocytes or moDCs, human IgG (Beriglobin P; CSL Behring, Vienna, Austria) was used at 20 mg/mL to block Fcγ receptors. […]

[2] = biological target: T2, isolated human iC3b (ih-iC3b) (human, UniProt P01024 23-667; P01024 749-1303; P01024 1321-1663, limits assumed, biotin on amino groups (Biotin-X-NHS) in flow cytometry; unlabelled in ELISA); assay: as above
T2 construct: Multi-chain fragment
Procedure: as §1, §2

[3] = biological target: T3, immunoglobulin-like transcript 4 (ILT4) (human, UniProt Q8N423 22-597); assay: flow cytometry: rh-C4d (C4Ad per the FIG. 3a legend) titrated on Bw-ILT4 cells, detected with C4d-mMAb, Langmuir 1:1 isotherm; stated to be a minimum estimate (non-equilibrium assay)
T3 construct: Expressed on Bw5147 cells from a 2 kb retroviral insert; In the functional assays it is the native receptor on human monocytes; also called CD85d; LILRB2
T3 sequence (Q8N423 other isoform, or with tags, fused parts or gaps limits assumed): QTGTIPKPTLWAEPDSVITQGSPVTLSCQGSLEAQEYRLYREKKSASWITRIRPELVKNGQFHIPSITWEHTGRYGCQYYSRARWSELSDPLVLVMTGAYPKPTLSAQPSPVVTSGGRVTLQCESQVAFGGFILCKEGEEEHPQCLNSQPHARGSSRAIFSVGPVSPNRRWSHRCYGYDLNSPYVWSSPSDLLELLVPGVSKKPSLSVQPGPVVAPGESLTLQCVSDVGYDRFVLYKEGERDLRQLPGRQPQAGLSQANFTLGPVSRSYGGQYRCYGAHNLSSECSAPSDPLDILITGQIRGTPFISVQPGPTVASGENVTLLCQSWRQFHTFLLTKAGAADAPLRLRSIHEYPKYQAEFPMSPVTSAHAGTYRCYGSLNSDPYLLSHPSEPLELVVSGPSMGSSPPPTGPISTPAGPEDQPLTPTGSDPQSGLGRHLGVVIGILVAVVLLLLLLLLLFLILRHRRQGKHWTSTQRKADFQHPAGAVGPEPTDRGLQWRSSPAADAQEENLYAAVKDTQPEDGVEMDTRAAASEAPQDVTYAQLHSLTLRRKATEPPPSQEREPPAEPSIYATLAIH
Procedure: FIG. 3. Classical receptor-ligand interaction between C4d and ILT4. a Bw-ILT4 cells or control Bw cells (Bw-mock) were incubated with different concentrations of C4Ad and cell-bound C4Ad was measured by flow cytometry using C4d-mMAb for detection. Data obtained for C4Ad are representative for those using C4Bd, data not shown. Mean and standard deviation of triplicate measurements are shown. b Dissociation constant (Kd) of the C4d-ILT4 interaction assessed via Langmuir binding isotherm equation for single class 1:1 binding equilibrium based on data shown in FIG. 3a.
(§3) Flow cytometric analyses were performed via a FACSCalibur flow cytometrer (BD Biosciences, Franklin Lakes, N.J.) using 60,000 cells per sample resuspended in FACS-buffer. In experiments employing monocytes or moDCs, human IgG (Beriglobin P; CSL Behring, Vienna, Austria) was used at 20 mg/mL to block Fcγ receptors. For fluorescence-activated cell sorting (FACS), Bw cells expressing a retroviral cDNA expression library generated from moDC¹⁶ were incubated with biotinylated rh-C4Ad or rh-C4Bd (20m/mL each) in FACS-buffer for 30 minutes on ice followed by two washing steps and subsequent detection of bound biotinylated C4d molecules through incubation with SA-PE. FACS was performed using a FACSDiva (BD Biosciences).

[4] = biological target: T3, immunoglobulin-like transcript 4 (ILT4); assay: flow cytometry, biotinylated C4d (20 µg/mL) on Bw cells expressing ILT4
Text: FIG. 1. Identification of ILT4 as cellular receptor for C4d. a Flow cytometric analyses showing the interaction of biotinylated recombinant human C4d (20m/mL) of both isoforms, rh-C4Ad and rh-C4Bd, with monocytes and monocyte-derived dendritic cells (moDC; grey histograms). Open histograms represent the reactivity of the secondary reagent with these cells. SA-PE: streptavidin-R-PE. b C4d-reactive cells were enriched from a Bw cell pool expressing a cDNA library derived from human moDC by multiple rounds of FACS. Data obtained for rh-C4Bd are representative for those obtained using rh-C4Ad (data not shown). Sorting gates are shown. c Single cell clones derived from the C4d reactive Bw cell pool were probed with rh-C4Ad- and rh-C4Bd. MFI: mean fluorescence intensity. d PCR-amplification of the retroviral inserts of the C4d-b(C4Bd) binding clones 1.5 and 3.7. e Bw cells expressing a 2 kb retroviral insert encoding immunoglobulin-like transcript 4 (ILT4) were probed with biotinylated rh-C4Ad, rh-C4Bd and C4d isolated from human plasma (ih-C4d) each at 20m/mL or ILT4-specific mMAb (grey histograms). Open histograms represent reactivity of C4d molecules and ILT4 mMAb with control Bw-cells. f Monocytes and moDC were analyzed for ILT4 expression (grey histograms, ILT4-mMAb; open histograms, isotype control). […]

[5] = biological target: T1, isolated human C3b (ih-C3b); assay: flow cytometry, CSP on transduced Bw cells (FIG. 5a)
Procedure: (§4) FIG. 5. Flow cytometric analysis of the interaction of C4d, C3d, C4b, C3b and iC3b and human MHC class I tetramers with Bw cells transduced to express a ILT1 transcript variants 1 and 2 (ILT1v1 and ILT1v2), ILT3 and ILT7, b previously established complement receptors CD21, CD46 and CRIg, and c PIR-A transcript variant 1 (PIR-Avl), murine ortholog of ILT1. a-c left panels: Expression of transduced receptors was assessed using specific antibodies (grey histograms); open histograms represent reactivity of these antibodies with control Bw cells. d Plate-bound CSP were probed with a recombinant protein representing the human CD35 extracellular domain (rh-sCD35) via ELISA. BSA was used as a plate-bound ligand control; white control bars represent no rh-sCD35 added to the assay.
as §3, with “In experiments employing monocytes or moDCs, human IgG (Beriglobin P; CSL Behring, Vienna, Austria) was used at 20 mg/mL to block Fcγ receptors.” left out, “FACS was performed using a FACSDiva (BD Biosciences).” left out

[6] = biological target: T2, isolated human iC3b (ih-iC3b); assay: as above
Procedure: as §4
as §3, with “In experiments employing monocytes or moDCs, human IgG (Beriglobin P; CSL Behring, Vienna, Austria) was used at 20 mg/mL to block Fcγ receptors.” left out, “FACS was performed using a FACSDiva (BD Biosciences).” left out

B1: ILT2 (receptor, human, UniProt Q8NHL6 24-650, looked up)
chain: GHLPKPTLWAEPGSVITQGSPVTLRCQGGQETQEYRLYREKKTALWITRIPQELVKKGQFPIPSITWEHAGRYRCYYGSDTAGRSESSDPLELVVTGAYIKPTLSAQPSPVVNSGGNVILQCDSQVAFDGFSLCKEGEDEHPQCLNSQPHARGSSRAIFSVGPVSPSRRWWYRCYAYDSNSPYEWSLPSDLLELLVLGVSKKPSLSVQPGPIVAPEETLTLQCGSDAGYNRFVLYKDGERDFLQLAGAQPQAGLSQANFTLGPVSRSYGGQYRCYGAHNLSSEWSAPSDPLDILIAGQFYDRVSLSVQPGPTVASGENVTLLCQSQGWMQTFLLTKEGAADDPWRLRSTYQSQKYQAEFPMGPVTSAHAGTYRCYGSQSSKPYLLTHPSDPLELVVSGPSGGPSSPTTGPTSTSGPEDQPLTPTGSDPQSGLGRHLGVVIGILVAVILLLLLLLLLFLILRHRRQGKHWTSTQRKADFQHPAGAVGPEPTDRGLQWRSSPAADAQEENLYAAVKHTQPEDGVEMDTRSPHDEDPQAVTYAEVKHSRPRREMASPPSPLSGEFLDTKDRQAEEDRQMDTEAAASEAPQDVTYAQLHSLTLRREATEPPPSQEGPSPAVPSIYATLAIH
notes: whole, on cells
What does the source list for B1?
binding result [1]: no binding (tested: 20 µg/mL); binding result [2]: no binding (tested: 20 µg/mL)

B2: recombinant human C4d, isoform C4d-A (rh-C4Ad) (ligand)
chain: TLEIPGNSDPNMIPDGDFNSYVRVTASDPLDTLGSEGALSPGGVASLLRLPRGCGEQTMIYLAPTLAASRYLDKTEQWSTLPPETKDHAVDLIQKGYMRIQQFRKADGSYAAWLSRDSSTWLTAFVLKVLSLAQEQVGGSPEKLQETSNWLLSQQQADGSFQDPCPVLDRSMQGGLVGNDETVALTAFVTIALHHGLAVFQDEGAEPLKQRVEASISKANSFLGEKASAGLLGAHAAAITAYALTLTKAPVDLLGVAHNNLMAMAQETGDNLYWGSVTGSQSNAVSPTPAPRNPSDPMPQAPALWIETTAYALLHLLLHEGKAEMADQASAWLTRQGSFQGGFRSTQDTVIALDALSAYWIASHTTEERGLNVTLSSTGR
modifications: biotin on amino groups (Biotin-X-NHS) or, when indicated, on the thioester cysteine C1010 (prepro numbering) via Iodoacetyl-LC-biotin; unlabelled in FIG. 3a and when used as competitor
notes: also called complement split product C4Ad; rh-C4d
How did the Kd [3] turn out when B2 was run?
The Kd was 630 nM.

B3: recombinant human C4d, isoform C4d-B (rh-C4Bd) (ligand)
chain: B2 chain with D117G, P164L, C165S, L168I, D169H, N220S, V251A, L254R, S330A
modifications: biotin on amino groups (Biotin-X-NHS) or, when indicated, on the thioester cysteine C1010 (prepro numbering) via Iodoacetyl-LC-biotin; unlabelled when used as competitor
notes: also called complement split product C4Bd; rh-C4d
Does B3 bind [4]?
Result: binds

B4: ILT7 (receptor, human, UniProt P59901 24-499, looked up)
chain: ENLLKPILWAEPGPVITWHNPVTIWCQGTLEAQGYRLDKEGNSMSRHILKTLESENKVKLSIPSMMWEHAGRYHCYYQSPAGWSEPSDPLELVVTAYSRPTLSALPSPVVTSGVNVTLRCASRLGLGRFTLIEEGDHRLSWTLNSHQHNHGKFQALFPMGPLTFSNRGTFRCYGYENNTPYVWSEPSDPLQLLVSGVSRKPSLLTLQGPVVTPGENLTLQCGSDVGYIRYTLYKEGADGLPQRPGRQPQAGLSQANFTLSPVSRSYGGQYRCYGAHNVSSEWSAPSDPLDILIAGQISDRPSLSVQPGPTVTSGEKVTLLCQSWDPMFTFLLTKEGAAHPPLRLRSMYGAHKYQAEFPMSPVTSAHAGTYRCYGSRSSNPYLLSHPSEPLELVVSGATETLNPAQKKSDSKTAPHLQDYTVENLIRMGVAGLVLLFLGILLFEAQHSQRSPPRCSQEANSRKDNAPFRVVEPWEQI
notes: whole, on cells
Does B4 bind [5]?
Result: no binding

Does B4 bind [6]?
Result: no binding
